Key:
Assay in all cases: cross-linking
[1] = target: CheA Q125C (single-cysteine mutant of cysteine-less CheA) (Salmonella typhimurium) (UniProt P09384)
[2] = target: CheA A114C (single-cysteine mutant of cysteine-less CheA) (Salmonella typhimurium) (UniProt P09384)
[3] = target: CheA E109C (single-cysteine mutant of cysteine-less CheA) (Salmonella typhimurium) (UniProt P09384)
[4] = target: CheA Q10C/S351C (dicysteine mutant of cysteine-less CheA) (Salmonella typhimurium) (UniProt P09384)
[5] = target: CheA R171C (single-cysteine mutant of cysteine-less CheA) (Salmonella typhimurium) (UniProt P09384)
[6] = target: CheA M469C (single-cysteine mutant of cysteine-less CheA) (Salmonella typhimurium) (UniProt P09384)
[7] = target: CheA Q10C/E369C (dicysteine mutant of cysteine-less CheA) (Salmonella typhimurium) (UniProt P09384)
[8] = target: CheA Q10C/S514C (dicysteine mutant of cysteine-less CheA) (Salmonella typhimurium) (UniProt P09384)
[9] = target: CheA L627C (single-cysteine mutant of cysteine-less CheA) (Salmonella typhimurium) (UniProt P09384)
[10] = target: CheA R607C (single-cysteine mutant of cysteine-less CheA) (Salmonella typhimurium) (UniProt P09384)
[11] = target: CheA Q10C/Q454C (dicysteine mutant of cysteine-less CheA) (Salmonella typhimurium) (UniProt P09384)
[12] = target: CheA Q10C (single-cysteine mutant of cysteine-less CheA) (Salmonella typhimurium) (UniProt P09384)
[13] = target: CheA G636C (single-cysteine mutant of cysteine-less CheA) (Salmonella typhimurium) (UniProt P09384)
[14] = target: CheA Q596C (single-cysteine mutant of cysteine-less CheA) (Salmonella typhimurium) (UniProt P09384)
[15] = target: CheA Q10C/E460C (dicysteine mutant of cysteine-less CheA) (Salmonella typhimurium) (UniProt P09384)
[16] = target: CheA Q10C/D359C (dicysteine mutant of cysteine-less CheA) (Salmonella typhimurium) (UniProt P09384)
[17] = target: CheA Q10C/E425C (dicysteine mutant of cysteine-less CheA) (Salmonella typhimurium) (UniProt P09384)
[18] = target: CheA A37C (single-cysteine mutant of cysteine-less CheA) (Salmonella typhimurium) (UniProt P09384)
[19] = target: CheA S514C (single-cysteine mutant of cysteine-less CheA) (Salmonella typhimurium) (UniProt P09384)
[20] = target: CheA Q10C/E311C (dicysteine mutant of cysteine-less CheA) (Salmonella typhimurium) (UniProt P09384)
[21] = target: CheA E311C (single-cysteine mutant of cysteine-less CheA) (Salmonella typhimurium) (UniProt P09384)
[22] = target: CheA Q10C/M469C (dicysteine mutant of cysteine-less CheA) (Salmonella typhimurium) (UniProt P09384)

## CheA Q125C (single-cysteine mutant of cysteine-less CheA) (from UniProt P09384 1-671) (enzyme)
[1]
  fraction (%) intradimer: 81%

## CheA A114C (single-cysteine mutant of cysteine-less CheA) (from UniProt P09384 1-671) (enzyme)
[2]
  fraction (%) intradimer: 84%

## CheA E109C (single-cysteine mutant of cysteine-less CheA) (from UniProt P09384 1-671) (enzyme)
[3]
  fraction (%) intradimer: 82%

## CheA Q10C/S351C (dicysteine mutant of cysteine-less CheA) (from UniProt P09384 1-671) (enzyme)
[4]
  fraction (%) intradimer: 100%

## CheA R171C (single-cysteine mutant of cysteine-less CheA) (from UniProt P09384 1-671) (enzyme)
[5]
  fraction (%) intradimer: 100%

## CheA M469C (single-cysteine mutant of cysteine-less CheA) (from UniProt P09384 1-671) (enzyme)
[6]
  fraction (%) intradimer: 72%

## CheA Q10C/E369C (dicysteine mutant of cysteine-less CheA) (from UniProt P09384 1-671) (enzyme)
[7]
  fraction (%) intradimer: 81%

## CheA Q10C/S514C (dicysteine mutant of cysteine-less CheA) (from UniProt P09384 1-671) (enzyme)
[8]
  fraction (%) intradimer: 49%

## CheA L627C (single-cysteine mutant of cysteine-less CheA) (from UniProt P09384 1-671) (enzyme)
[9]
  fraction (%) intradimer: 100%

## CheA R607C (single-cysteine mutant of cysteine-less CheA) (from UniProt P09384 1-671) (enzyme)
[10]
  fraction (%) intradimer: 100%

## CheA Q10C/Q454C (dicysteine mutant of cysteine-less CheA) (from UniProt P09384 1-671) (enzyme)
[11]
  fraction (%) intradimer: 100%

## CheA Q10C (single-cysteine mutant of cysteine-less CheA) (from UniProt P09384 1-671) (enzyme)
[12]
  fraction (%) intradimer: 100%

## CheA G636C (single-cysteine mutant of cysteine-less CheA) (from UniProt P09384 1-671) (enzyme)
[13]
  fraction (%) intradimer: 83%

## CheA Q596C (single-cysteine mutant of cysteine-less CheA) (from UniProt P09384 1-671) (enzyme)
[14]
  fraction (%) intradimer: 100%

## CheA Q10C/E460C (dicysteine mutant of cysteine-less CheA) (from UniProt P09384 1-671) (enzyme)
[15]
  fraction (%) intradimer: 91%

## CheA Q10C/D359C (dicysteine mutant of cysteine-less CheA) (from UniProt P09384 1-671) (enzyme)
[16]
  fraction (%) intradimer: 86%

## CheA Q10C/E425C (dicysteine mutant of cysteine-less CheA) (from UniProt P09384 1-671) (enzyme)
[17]
  fraction (%) intradimer: 100%

## CheA A37C (single-cysteine mutant of cysteine-less CheA) (from UniProt P09384 1-671) (enzyme)
[18]
  fraction (%) intradimer: 46%

## CheA S514C (single-cysteine mutant of cysteine-less CheA) (from UniProt P09384 1-671) (enzyme)
[19]
  fraction (%) intradimer: 50%

## CheA Q10C/E311C (dicysteine mutant of cysteine-less CheA) (from UniProt P09384 1-671) (enzyme)
[20]
  fraction (%) intradimer: 87%

## CheA E311C (single-cysteine mutant of cysteine-less CheA) (from UniProt P09384 1-671) (enzyme)
[21]
  fraction (%) intradimer: 93%

## CheA Q10C/M469C (dicysteine mutant of cysteine-less CheA) (from UniProt P09384 1-671) (enzyme)
[22]
  fraction (%) intradimer: 100%

Reference: article PMC2902799
